These results are taken from IntAct's records for PubMed 15990873.

Sequences and labels used below:
B1: Protein MKS1 (Arabidopsis thaliana (Mouse-ear cress)), Q8LGD5 (parent)
chain: MDPSEYFAGGNPSDQQNQKRQLQICGPRPSPLSVHKDSHKIKKPPKHPAPPPNRDQPPPYIPREPVVIYAVSPKVVHATASEFMNVVQRLTGISSGVFLESGGGGDVSPAARLASTENASPRGGKEPAARDETVEINTAMEEAAEFGGYAPGILSPSPALLPTASTGIFSPMYHQGGMFSPAIPLGLFSPAGFMSPFRSPGFTSLVASPTFADFFSHIWDQD
partner: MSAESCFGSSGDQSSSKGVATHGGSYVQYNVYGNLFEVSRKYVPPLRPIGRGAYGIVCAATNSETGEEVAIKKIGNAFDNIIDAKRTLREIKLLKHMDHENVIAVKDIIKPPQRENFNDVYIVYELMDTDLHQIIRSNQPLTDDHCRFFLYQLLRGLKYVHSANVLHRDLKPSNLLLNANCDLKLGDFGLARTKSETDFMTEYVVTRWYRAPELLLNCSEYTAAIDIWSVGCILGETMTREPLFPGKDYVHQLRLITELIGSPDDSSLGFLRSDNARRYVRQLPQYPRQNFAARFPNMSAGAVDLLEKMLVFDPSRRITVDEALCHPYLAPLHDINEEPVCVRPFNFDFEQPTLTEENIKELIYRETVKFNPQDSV

Variants of B1 are the subject of this assay. Particulars: with mpk4_arath MPK4, Q39024.
Take S30A: the “effect of a mutation on the interaction” value is “decreasing interaction”.
